Experimental data taken from patent publication US20220074937A1.

Legend:
[1] = target: CD19 CAR containing FMC63 scFv, on the cell surface (CD19 CAR-T cells, CD19 CAR-293T cells); experiment: flow cytometry, CAR positive cells unmixed; AF488-CD19sIg1-4 against SSC-A; data reproduced from De Oliveira SN, et al., J Transl Med, 2013
[2] = target: CD19 CAR containing FMC63 scFv, on the cell surface (CD19 CAR-T cells, CD19 CAR-293T cells); experiment: flow cytometry, CAR positive cells diluted 1:8 in negative cells; AF488-CD19sIg1-4 against SSC-A; data reproduced from De Oliveira SN, et al., J Transl Med, 2013
[3] = target: CD19 CAR containing FMC63 scFv, on the cell surface (CD19 CAR-T cells, CD19 CAR-293T cells); experiment: flow cytometry, CAR positive cells diluted 1:16 in negative cells; AF488-CD19sIg1-4 against SSC-A; data reproduced from De Oliveira SN, et al., J Transl Med, 2013
[4] = target: CD19 CAR containing FMC63 scFv, on the cell surface (CD19 CAR-T cells, CD19 CAR-293T cells); experiment: flow cytometry, CAR positive cells diluted 1:32 in negative cells; AF488-CD19sIg1-4 against SSC-A; data reproduced from De Oliveira SN, et al., J Transl Med, 2013
[5] = target: CD19 CAR containing FMC63 scFv, on the cell surface (CD19 CAR-T cells, CD19 CAR-293T cells); experiment: flow cytometry, CAR positive cells diluted 1:64 in negative cells; AF488-CD19sIg1-4 against SSC-A; data reproduced from De Oliveira SN, et al., J Transl Med, 2013
[6] = target: CD19 CAR containing FMC63 scFv, on the cell surface (CD19 CAR-T cells, CD19 CAR-293T cells); experiment: flow cytometry, CAR positive cells diluted 1:128 in negative cells; AF488-CD19sIg1-4 against SSC-A; data reproduced from De Oliveira SN, et al., J Transl Med, 2013

Chain of CD19 CAR containing FMC63 scFv, on the cell surface (CD19 CAR-T cells, CD19 CAR-293T cells) (chain, as listed by the source): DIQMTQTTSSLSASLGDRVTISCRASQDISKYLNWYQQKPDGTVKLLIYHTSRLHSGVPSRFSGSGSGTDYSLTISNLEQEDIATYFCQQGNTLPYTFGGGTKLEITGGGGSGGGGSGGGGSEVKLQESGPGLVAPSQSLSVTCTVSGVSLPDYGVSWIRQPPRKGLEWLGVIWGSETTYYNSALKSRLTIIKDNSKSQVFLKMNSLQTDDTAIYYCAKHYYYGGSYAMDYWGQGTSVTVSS

% of cells in the AF488-CD19sIg1-4 positive gate, CAR positive cell (unmixed) [1]: 65.9%
% of cells in the AF488-CD19sIg1-4 positive gate, 1:8 [2]: 9.24%
% of cells in the AF488-CD19sIg1-4 positive gate, 1:16 [3]: 4.28%
% of cells in the AF488-CD19sIg1-4 positive gate, 1:32 [4]: 2.96%
% of cells in the AF488-CD19sIg1-4 positive gate, 1:64 [5]: 1.34%
% of cells in the AF488-CD19sIg1-4 positive gate, 1:128 [6]: 0.646%
Substance: CD19/Fc (Fc fusion)
